Results published in US20260250322A1, “NEW PEPTIDES AS SELECTIVE IL-23 RECEPTOR INHIBITORS” (SANOFI, priority 2023, published 2026).
Numbered stars: 1 amine (or outer) side, 2 acyl side, 3 side chain; on linkers, the order of the positions; unused ones are H or OH. Bridge positions count the residues as written; N and C are the ends. Square brackets hold non-standard residues; d marks the D form. Tyr(Me) = Yme = 4-methoxy-L-phenylalanine (O-methyl-tyrosine), COc1ccc(C[C@H](N[*:1])C(=O)[*:2])cc1; Trp(1-Me) = Cn1cc(C[C@H](N)C(=O)O)c2ccccc21; dAla(4-thiazolyl) = N[C@H](Cc1cscn1)C(=O)O; 1Nal = N[C@@H](Cc1cccc2ccccc12)C(=O)O; 2Nal = N[C@@H](Cc1ccc2ccccc2c1)C(=O)O; Cit = NC(=O)NCCC[C@H](N)C(=O)O; αMeL = CC(C)C[C@](C)(N)C(=O)O; Orn = NCCC[C@H](N)C(=O)O; Aib = CC(C)(N)C(=O)O

T1: IL-23 receptor on the surface of HEK-Blue IL-23 cells (UniProt Q5VWK5 24-629, limits assumed)
T1 sequence (looked up): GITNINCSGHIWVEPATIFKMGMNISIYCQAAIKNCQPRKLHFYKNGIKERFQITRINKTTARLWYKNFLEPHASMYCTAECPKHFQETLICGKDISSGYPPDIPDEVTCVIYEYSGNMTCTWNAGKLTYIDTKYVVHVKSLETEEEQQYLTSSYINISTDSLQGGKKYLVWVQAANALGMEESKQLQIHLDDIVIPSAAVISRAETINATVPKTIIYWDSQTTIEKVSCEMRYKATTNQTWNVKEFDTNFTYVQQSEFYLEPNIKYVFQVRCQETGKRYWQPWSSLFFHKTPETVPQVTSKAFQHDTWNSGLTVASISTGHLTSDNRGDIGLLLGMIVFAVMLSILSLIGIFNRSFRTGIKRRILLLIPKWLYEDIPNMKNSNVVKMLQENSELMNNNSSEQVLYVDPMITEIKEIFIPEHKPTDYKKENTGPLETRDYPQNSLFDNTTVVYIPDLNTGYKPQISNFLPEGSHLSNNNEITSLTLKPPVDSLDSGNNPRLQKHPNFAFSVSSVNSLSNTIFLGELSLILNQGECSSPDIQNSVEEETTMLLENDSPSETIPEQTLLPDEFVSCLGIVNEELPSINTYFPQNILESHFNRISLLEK

B1: peptide compound SEQ ID NO: 10 (peptide)
peptide: Ac-[dK]NT[Trp(1-Me)]QR[Tyr(Me)][2Nal]K(Ac)DNN-NH2
modifications: lactam 1-10
SMILES: COc1ccc(C[C@@H]2NC(=O)[C@H](CCCNC(=N)N)NC(=O)[C@H](CCC(N)=O)NC(=O)[C@H](Cc3cn(C)c4ccccc34)NC(=O)[C@H]([C@@H](C)O)NC(=O)[C@H](CC(N)=O)NC(=O)[C@H](NC(C)=O)CCCCNC(=O)C[C@@H](C(=O)N[C@@H](CC(N)=O)C(=O)N[C@@H](CC(N)=O)C(N)=O)NC(=O)[C@H](CCCCNC(C)=O)NC(=O)[C@H](Cc3ccc4ccccc4c3)NC2=O)cc1
B2: peptide compound SEQ ID NO: 29 (peptide)
peptide: Ac-[dK]NTWQR[Tyr(Me)][2Nal][Cit]DNN-NH2
modifications: lactam 1-10
SMILES: COc1ccc(C[C@@H]2NC(=O)[C@H](CCCNC(=N)N)NC(=O)[C@H](CCC(N)=O)NC(=O)[C@H](Cc3c[nH]c4ccccc34)NC(=O)[C@H]([C@@H](C)O)NC(=O)[C@H](CC(N)=O)NC(=O)[C@H](NC(C)=O)CCCCNC(=O)C[C@@H](C(=O)N[C@@H](CC(N)=O)C(=O)N[C@@H](CC(N)=O)C(N)=O)NC(=O)[C@H](CCCNC(N)=O)NC(=O)[C@H](Cc3ccc4ccccc4c3)NC2=O)cc1
B3: peptide compound SEQ ID NO: 13 (peptide)
peptide: Ac-[dD]NTWQR[Tyr(Me)][2Nal][Aib][Orn]NN-NH2
modifications: lactam 1-10
SMILES: COc1ccc(C[C@@H]2NC(=O)[C@H](CCCNC(=N)N)NC(=O)[C@H](CCC(N)=O)NC(=O)[C@H](Cc3c[nH]c4ccccc34)NC(=O)[C@H]([C@@H](C)O)NC(=O)[C@H](CC(N)=O)NC(=O)[C@H](NC(C)=O)CC(=O)NCCC[C@@H](C(=O)N[C@@H](CC(N)=O)C(=O)N[C@@H](CC(N)=O)C(N)=O)NC(=O)C(C)(C)NC(=O)[C@H](Cc3ccc4ccccc4c3)NC2=O)cc1
B4: peptide compound SEQ ID NO: 2 (peptide)
peptide: Ac-[dK]NTWQA[Tyr(Me)][2Nal][Aib]DNN-NH2
modifications: lactam 1-10
SMILES: COc1ccc(C[C@@H]2NC(=O)[C@H](C)NC(=O)[C@H](CCC(N)=O)NC(=O)[C@H](Cc3c[nH]c4ccccc34)NC(=O)[C@H]([C@@H](C)O)NC(=O)[C@H](CC(N)=O)NC(=O)[C@H](NC(C)=O)CCCCNC(=O)C[C@@H](C(=O)N[C@@H](CC(N)=O)C(=O)N[C@@H](CC(N)=O)C(N)=O)NC(=O)C(C)(C)NC(=O)[C@H](Cc3ccc4ccccc4c3)NC2=O)cc1
B5: peptide compound SEQ ID NO: 21 (peptide)
peptide: Ac-[dK]NTWQ[Aib][Tyr(Me)][1Nal][Aib]DNN-NH2
modifications: lactam 1-10
SMILES: COc1ccc(C[C@@H]2NC(=O)C(C)(C)NC(=O)[C@H](CCC(N)=O)NC(=O)[C@H](Cc3c[nH]c4ccccc34)NC(=O)[C@H]([C@@H](C)O)NC(=O)[C@H](CC(N)=O)NC(=O)[C@H](NC(C)=O)CCCCNC(=O)C[C@@H](C(=O)N[C@@H](CC(N)=O)C(=O)N[C@@H](CC(N)=O)C(N)=O)NC(=O)C(C)(C)NC(=O)[C@H](Cc3cccc4ccccc34)NC2=O)cc1
B6: peptide compound SEQ ID NO: 12 (peptide)
peptide: Ac-[dD]NTWQR[Tyr(Me)][2Nal][Aib]KNN-NH2
modifications: lactam 1-10
SMILES: COc1ccc(C[C@@H]2NC(=O)[C@H](CCCNC(=N)N)NC(=O)[C@H](CCC(N)=O)NC(=O)[C@H](Cc3c[nH]c4ccccc34)NC(=O)[C@H]([C@@H](C)O)NC(=O)[C@H](CC(N)=O)NC(=O)[C@H](NC(C)=O)CC(=O)NCCCC[C@@H](C(=O)N[C@@H](CC(N)=O)C(=O)N[C@@H](CC(N)=O)C(N)=O)NC(=O)C(C)(C)NC(=O)[C@H](Cc3ccc4ccccc4c3)NC2=O)cc1
B7: peptide compound SEQ ID NO: 23 (peptide)
peptide: Ac-[dK]NT[Trp(1-Me)]QR[Tyr(Me)][1Nal][αMeL]DNN-NH2
modifications: lactam 1-10
SMILES: COc1ccc(C[C@@H]2NC(=O)[C@H](CCCNC(=N)N)NC(=O)[C@H](CCC(N)=O)NC(=O)[C@H](Cc3cn(C)c4ccccc34)NC(=O)[C@H]([C@@H](C)O)NC(=O)[C@H](CC(N)=O)NC(=O)[C@H](NC(C)=O)CCCCNC(=O)C[C@@H](C(=O)N[C@@H](CC(N)=O)C(=O)N[C@@H](CC(N)=O)C(N)=O)NC(=O)[C@](C)(CC(C)C)NC(=O)[C@H](Cc3cccc4ccccc34)NC2=O)cc1
B8: peptide compound SEQ ID NO: 20 (peptide)
peptide: Ac-[dK]NTWQV[Tyr(Me)][1Nal][Aib]DNN-NH2
modifications: lactam 1-10
SMILES: COc1ccc(C[C@@H]2NC(=O)[C@H](C(C)C)NC(=O)[C@H](CCC(N)=O)NC(=O)[C@H](Cc3c[nH]c4ccccc34)NC(=O)[C@H]([C@@H](C)O)NC(=O)[C@H](CC(N)=O)NC(=O)[C@H](NC(C)=O)CCCCNC(=O)C[C@@H](C(=O)N[C@@H](CC(N)=O)C(=O)N[C@@H](CC(N)=O)C(N)=O)NC(=O)C(C)(C)NC(=O)[C@H](Cc3cccc4ccccc34)NC2=O)cc1
B9: peptide compound SEQ ID NO: 15 (peptide)
peptide: Ac-[dK]NTWQR[Tyr(Me)][2Nal][Aib]DNN-NH2
modifications: lactam 1-10
SMILES: COc1ccc(C[C@@H]2NC(=O)[C@H](CCCNC(=N)N)NC(=O)[C@H](CCC(N)=O)NC(=O)[C@H](Cc3c[nH]c4ccccc34)NC(=O)[C@H]([C@@H](C)O)NC(=O)[C@H](CC(N)=O)NC(=O)[C@H](NC(C)=O)CCCCNC(=O)C[C@@H](C(=O)N[C@@H](CC(N)=O)C(=O)N[C@@H](CC(N)=O)C(N)=O)NC(=O)C(C)(C)NC(=O)[C@H](Cc3ccc4ccccc4c3)NC2=O)cc1
B10: peptide IL-23 receptor inhibitor SEQ. ID NO. 24 (peptide)
peptide: Ac-[dK]NT[Trp(1-Me)]QR[Tyr(Me)][2Nal][αMeL]DNN-NH2
modifications: lactam 1-10
SMILES: COc1ccc(C[C@@H]2NC(=O)[C@H](CCCNC(=N)N)NC(=O)[C@H](CCC(N)=O)NC(=O)[C@H](Cc3cn(C)c4ccccc34)NC(=O)[C@H]([C@@H](C)O)NC(=O)[C@H](CC(N)=O)NC(=O)[C@H](NC(C)=O)CCCCNC(=O)C[C@@H](C(=O)N[C@@H](CC(N)=O)C(=O)N[C@@H](CC(N)=O)C(N)=O)NC(=O)[C@](C)(CC(C)C)NC(=O)[C@H](Cc3ccc4ccccc4c3)NC2=O)cc1
B11: peptide compound SEQ ID NO: 25 (peptide)
peptide: Ac-[dK]NT[Trp(1-Me)]QR[Tyr(Me)][2Nal][dAla(4-thiazolyl)]DNN-NH2
modifications: lactam 1-10
SMILES: COc1ccc(C[C@@H]2NC(=O)[C@H](CCCNC(=N)N)NC(=O)[C@H](CCC(N)=O)NC(=O)[C@H](Cc3cn(C)c4ccccc34)NC(=O)[C@H]([C@@H](C)O)NC(=O)[C@H](CC(N)=O)NC(=O)[C@H](NC(C)=O)CCCCNC(=O)C[C@@H](C(=O)N[C@@H](CC(N)=O)C(=O)N[C@@H](CC(N)=O)C(N)=O)NC(=O)[C@@H](Cc3cscn3)NC(=O)[C@H](Cc3ccc4ccccc4c3)NC2=O)cc1

biological target: T1, IL-23 receptor on the surface of …; experiment: cell-based or functional assay

How did the “Inhibition of IL-23 induced pSTAT3 (IC50 nM)” value (from here on “Inhibition”) turn out when B1 was run?
The value was 1440 nM.

For B2, which “Inhibition” value is on record?
The value was 2720 nM.

Which “Inhibition” value does the source give for B3 here?
Its value is 1150 nM.

With B4 as the binder, how does the “Inhibition” value read?
The value was 234 nM.

With B5 as the binder, how does the “Inhibition” value read?
The value was 7500 nM.

How did the “Inhibition” value turn out when B6 was run?
Its value is 6590 nM.

For B7, which “Inhibition” value is on record?
The value was 1960 nM.

Which “Inhibition” value does the source give for B8 here?
The value was 10000 nM.

For B9, which “Inhibition” value is on record?
Its value is 426 nM.

B10 was tested. Which “Inhibition” value did it give?
The value was 385 nM.

How did the “Inhibition” value turn out when B11 was run?
Its value is 3830 nM.
